The target in this experiment is FITC-labeled amyloid-β (Aβ), aggregated into amyloid-derived diffusible ligands (ADDLs). Kind of experiment: SEC; FITC-labeled Aβ aggregated by the Freir protocol (ADDLs); solvent PBS. For orientation: In gel filtration, larger molecules generally elute earlier.

Broadly, the stoichiometry N is a count of units in the complex or per binding partner.

Consider “FITC-labeled amyloid-β (Aβ), aggregated into amyloid-derived diffusible ligands (ADDLs) (peptide)”, for which the stoichiometry N was determined as 2.

The record behind these values is paper PMC6718452.
